# What was measured:
# [1] = biological target: EGFR on EGFR-bearing tumor cells (human, UniProt P00533); assay: cell ELISA on A431 and MDA MB 468 cells, bacterial supernatants
# Protocol: The scFvs were tested by ELISA for binding to three tumor cell lines. […] Cell line SK-MEL-23 is a ganglioside-bearing melanoma cell line and was included as a negative control.
# Cells were grown to confluency in poly-D-lysine-treated 96 well tissue culture trays (Nunc). Cells were washed with DMEM and blocked at 37° C. for 2 h with PBS containing 2.5% BSA. After aspiration, supernatants were added to each well together with an equal volume of 2xYT media containing 4% milk powder and incubated at 40C for 1 h. Bound scFvs were detected as described above.
# purified EGFR = purified EGFR (human, UniProt P00533); assay: ELISA, purified EGFR, bacterial supernatants
# Protocol: Binding of scFvs to EGFR. The concentrations of scFvs in bacterial supernatants were estimated and the scFvs tested by ELISA for binding to purified EGFR.
# Antigen-binding ELISAs were carried out with EGFR-coated plates (2.5 µg/ml). Supernatants containing scFvs were diluted in PBSM and added to the plates. Bound scFvs were detected using 9E10 antibody as described above. Supernatants were also tested for binding to a panel of unrelated proteins and plastic. ELISA plates were coated overnight at 100 µg/ml with ovalbumin, hen egg lysozyme, cytochrome c, glyceraldehyde 3-phosphate dehydrogenase, murine albumin (CBA strain), and BSA. Undiluted supernatants containing 2% milk powder were added in duplicate to the coated plates and bound scFvs detected as described above.
# hen egg lysozyme = hen egg lysozyme (hen, UniProt P00698); assay: ELISA, bacterial supernatants
# Protocol: (§1) The scFvs were tested by ELISA for binding to plastic and to a panel of unrelated proteins (ovalbumin, hen egg lysozyme, cytochrome c, glyceraldehyde 3-phosphate dehydrogenase, CBA albumin, and BSA).
# (§2) Supernatants containing scFvs were diluted in PBSM and added to the plates. Bound scFvs were detected using 9E10 antibody as described above. Supernatants were also tested for binding to a panel of unrelated proteins and plastic. ELISA plates were coated overnight at 100 µg/ml with ovalbumin, hen egg lysozyme, cytochrome c, glyceraldehyde 3-phosphate dehydrogenase, murine albumin (CBA strain), and BSA. Undiluted supernatants containing 2% milk powder were added in duplicate to the coated plates and bound scFvs detected as described above.
# [2] = biological target: murine albumin (CBA strain) (murine, UniProt P07724); assay: ELISA, bacterial supernatants
# Protocol: as §1, §2
# BSA = BSA (Bos taurus (Bovine), UniProt P02769); assay: ELISA, bacterial supernatants
# Protocol: as §1, §2
# ovalbumin = ovalbumin (Gallus gallus (Chicken), UniProt P01012); assay: ELISA, bacterial supernatants
# Protocol: as §1, §2
Binder,binding result [1],binding result (purified EGFR),binding result (hen egg lysozyme),binding result [2],binding result (BSA),binding result (ovalbumin)
"scFv No. L2 12B (scFv, V domains shown) VH: QVQLQESGPELVKPGALVKISCKASGYTFTSYWMHWVKQRPGQGLEWIGEIDPSDSYTNYNQKFKGKATLTVDKSSNTAYMQLSSLTSEDSAVYYCARSDYGSSHFDYWGQGTTVTVSS VL: not shown",binds,binds,no binding,no binding,no binding,no binding
"scFv No. L3 11D (scFv, V domains shown) VH: EVQLQQSGAELVKPGASVKLSCKASGYTFTSYWMHWVKQRPGQGLEWIGEIDPSDSYTNYNQKFKGKATLTVDKSSSTAYMQLSSLTSEDSAVYYCARSDYGSSHFDYWGQGTTVTVSS VL: not shown",,,no binding,no binding,no binding,no binding
"scFv No. S4 2D (scFv, V domains shown) VH: EVKLQQSGPELVKPGASVKMSCKASGYAFISFVMHWVKQKPGQGLEWIGFINPYNDGTKYNEKFKDKATLTSDKSSSTAYMELSSLTSEDSAVYYCASGDYDRAMDYWGQGTTVTVSS VL: DIELTQSPTTMAASPGEKITITCSASSSISSNYLHWYQQKPGFSPKLLIYRTSNLASGVPARFSGSGSGTSYSLTIGTMEAEDVATYYCQQGSSIPRTFGGGTKLEIKR",,,no binding,no binding,no binding,no binding
"scFv No. L2 11C (scFv, V domains shown) VH: QVQLQESGPELVRPGASVKMSCKASGYTFTTYWIHWMKQRPGQGLQWIGMIDPSNSETRLNQNFRDKATLSVDKSSNKAYMQLSSLTSEDSAIYYCARWDYGSGHFDYWGQGTTVTVSS VL: DIELTQSPASLAASVGETVTITCRASENIYYSLAWYQQKQGKSPQLLIYSASALEDGVPSRFSGSGSGTQYSLKINNMQPEDTATYFCKQTYDVPWTFGGGTKLEIKR",,,no binding,no binding,no binding,no binding
